For experiment [1], the target named is T1, HMW-MAA-specific human scFv C21 (biotinylated (NHS-LC-biotin) in the competition and panning assays). As to the kind of experiment: calculated from a molecular docking model (…); not measured.
For experiment [2], the target named is T1, HMW-MAA-specific human scFv C21. Briefly: SPR (Biacore 3000, 25 C), peptide over amine-coupled scFv C21, koff/kon. A general note: In SPR one partner is held on a chip, and binding of the other changes the refractive index at the surface.
Experiment [3] shares this target. As to the kind of experiment: SPR (Biacore 3000, 25 C), peptide over amine-coupled scFv C21, 1:1 Langmuir fit.
The target is the same in experiment [4]. As to the kind of experiment: inhibition cell ELISA: peptide incubated 2 h at 4 °C with PP scFv C21 (1:1600) and biotinylated mAb 9E10, then added to Colo38 cells, SA-HRP; blocked ligand: HMW-MAA on Colo38 cells. For orientation: In an ELISA, binding on a coated surface is turned into a signal by an enzyme label.

Bridges are numbered along the chain shown (N, C = ends). Where no end group is shown, it is not given here.

T1 sequence (chain, as listed by the source): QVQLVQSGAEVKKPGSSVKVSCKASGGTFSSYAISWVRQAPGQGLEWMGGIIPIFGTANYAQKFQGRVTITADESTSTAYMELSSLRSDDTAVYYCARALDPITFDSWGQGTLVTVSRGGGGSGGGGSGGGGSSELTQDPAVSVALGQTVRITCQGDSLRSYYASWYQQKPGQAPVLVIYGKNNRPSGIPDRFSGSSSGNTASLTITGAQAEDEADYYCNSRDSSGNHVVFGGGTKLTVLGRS

For the molecule RPYRYDPLGSLKSRH [peptide P3S10 (RPYRYDPLGSLKSRH)], the “Total Energy (calculated binding energy)” value in experiment [1] was -16.4 kcal/mol. The affinity in experiment [2], expressed as Kd, was 3.34 µM. In addition, in experiment [3], the koff worked out at 0.00307 s⁻¹ and the kon is 917 M⁻¹ s⁻¹.
As to SPSWYCPDCDKRPLV (disulfide 6-9 (inferred), Synthetic peptide) [peptide P1C21 (SPSWYCPDCDKRPLV), cyclized], in experiment [1], the “Total Energy (calculated binding energy)” value is -93.8 kcal/mol. This molecule also gave a Kd in experiment [2] of 8.24 µM. Further, in experiment [3], the koff was 0.0097 s⁻¹ and the kon turned out to be 1180 M⁻¹ s⁻¹. Further, the “IC50 (read off the curve)” value in experiment [4] was around 3 µM.
The matching figures for RPYRYDPLGDLKSRH [peptide P3C21 (RPYRYDPLGDLKSRH), linear]: -7.3 kcal/mol, 30.2 µM, 0.0655 s⁻¹, 2170 M⁻¹ s⁻¹ and around 1 µM.

As a reminder, the Kd is the concentration at which binding is half-saturated. Read a low Kd as higher affinity. For orientation: koff means a measure of how fast the partners let go of each other. High values mean a short-lived complex, low ones a long-lived complex. By kon is commonly meant a measure of how fast the partners come together. Lower therefore signals slower complex formation.

The values above are taken from patent US20110200608A1 (UNIVERSITY OF PITTSBURGH OF THE COMMONWEALTH SYSTEM OF …, published 2011).
